# Test results: patent US11312984B2, “High-purity steviol glycosides” (PURECIRCLE SDN BHD, priority 2013, dated 2022)
# How the values were obtained:
# [1] = Sweetness of reb M compared to a 10% sucrose solution
# Text: The high purity reb M obtained in this invention, having a molecular weight of 1291.29, a molecular formula of C56H90O33, CAS registry number 1220616-44-3, and the structure presented in FIG. 1, is in the form of a white and odorless powder. The compound is about 200 times sweeter than sugar when compared to a 10% sucrose solution.
# [2] = Catalytic test of in-vitro expressed UDP-glucosyltransferases, Rebaudioside A to Rebaudioside D (HPLC); assay type: biochemical; conditions: 0.5 mM Rebaudioside A, 30° C.; for Steviol glycoside conversion in reaction mixture, Reb A (Retention Time ~9.1 min): remaining substrate
# Description: The prepared expression medium mix was added to the plasmid solution and the solution was allowed to incubate at 30° C. for 3 hours while mixing the mixture every 45 minutes. 5 μL of the mixture was frozen whereas the remainder was used for the catalytic test for the conversion of Rebaudioside A to Rebaudioside D.
# 430 μL of a reaction mixture containing 0.5 mM Rebaudioside A, 3 mM MgCl2, 50 mM phosphate buffer (pH7.2) and 2.5 mM UDP-glucose was added to a 1.5 mL sterile microtube. 52 μL of the enzyme expression medium was added and the resulting mixture was allowed to react at 30° C. for 24 hours. 125 μL samples were taken after 2 hours, 16 hours and 24 hours and added to a 115 μL of 60% methanol and 10 μL of 2 N H2SO4. The quenched sample was centrifuged at 18,000 g for 2 minutes at RT. 200 μL was transferred to an HPLC vial and analyzed.
# The HPLC assay was performed as follows:
# 430 μL of a reaction mixture containing 0.5 mM Rebaudioside A, 3 mM MgCl2, 50 mM phosphate buffer (pH7.2) and 2.5 mM UDP-glucose was added to a 1.5 mL sterile microtube. 52 μL of the enzyme expression medium was added and the resulting mixture was allowed to react at 30° C. for 24 hours. 125 μL samples were taken after 2 hours, 16 hours and 24 hours and added to a 115 μL of 60% methanol and 10 μL of 2 N H2SO4. The quenched sample was centrifuged at 18,000 g for 2 minutes at RT. 200 μL was transferred to HPLC vial and analyzed.
# The HPLC assay was performed as described in EXAMPLE 20.
# [3] = Rubusoside conversion products with UGTSL, UGTSL2 and UGTLB by LC-MS; assay type: biochemical; conditions: reaction time UGTSL2 2 hrs, UGTLB 5 hrs, UGTSL 45 hrs
# Description: (§1) Conversion of stevioside with UGTSL and UGTSL2 was conducted in similar manner to Example 28, and the conversion of rubusoside with UGTSL and UGTSL2 was conducted similarly to Example 29. Conversions of rubusoside and stevioside with UGTLB was conducted similarly to Example 32.
# (§2) The reaction mixtures were analyzed by LCMS to determine all reaction products.
# [4] = Stevioside conversion products with UGTSL, UGTSL2 and UGTLB by LC-MS; assay type: biochemical; conditions: reaction time UGTSL2 2 hrs, UGTLB 2 hrs, UGTSL 22 hrs
# Description: as §1, §2
Molecule,times sweeter than sugar [1],"Steviol glycoside conversion in reaction mixture, Reb D (Retention Time ~5.8 min) [2] [% area]","Steviol glycoside conversion in reaction mixture, Reb UNK (Retention Time ~6.7 min) [2] [% area]","Steviol glycoside conversion in reaction mixture, Reb A (Retention Time ~9.1 min) [2] [% area]","Rubusoside conversion products, LC-MS peak area ratio: Reb D [3] [%]","Rubusoside conversion products, LC-MS peak area ratio: Reb E [3] [%]","Rubusoside conversion products, LC-MS peak area ratio: Rub [3] [%]","Rubusoside conversion products, LC-MS peak area ratio: Stev [3] [%]","Stevioside conversion products, LC-MS peak area ratio: Reb D [4] [%]","Stevioside conversion products, LC-MS peak area ratio: Reb E [4] [%]","Stevioside conversion products, LC-MS peak area ratio: Stev [4] [%]"
"C=C1C[C@@]23CC[C@H]4[C@@](C)(CCC[C@@]4(C)C(=O)O[C@@H]4O[C@H](CO)[C@@H](O)[C@H](O[C@@H]5O[C@H](CO)[C@@H](O)[C@H](O)[C@H]5O)[C@H]4O[C@@H]4O[C@H](CO)[C@@H](O)[C@H](O)[C@H]4O)[C@@H]2CC[C@]1(O[C@@H]1O[C@H](CO)[C@@H](O)[C@H](O[C@@H]2O[C@H](CO)[C@@H](O)[C@H](O)[C@H]2O)[C@H]1O[C@@H]1O[C@H](CO)[C@@H](O)[C@H](O)[C@H]1O)C3 [reb M, rebaudioside M]",about 200 times,–,–,–,–,–,–,–,–,–,–
"S115N06 C2: UDP-glucoronosyl/UDP-glucosyl transferase family protein, Arabidopsis lyrata subsp. lyrata, SEQ ID NO: 7 (protein, listed as Arabidopsis lyrata) MDDKKEEVMHIAMFPWLAMGHLLPFLRLSKLLAQKGHKISFISTPRNILRLPKLPSNLSSSITFVSFPLPSISGLPPSSESSMDVPYNKQQSLKAAFDLLQPPLTEFLRLSSPDWIIYDYASHWLPSIAKELGISKAFFSLFNAATLCFMGPSSSLIEESRSTPEDFTVVPPWVPFKSTIVFRYHEVSRYVEKTDEDVTGVSDSVRFGYTIDGSDAVFVRSCPEFEPEWFSLLQDLYRKPVFPIGFLPPVIEDDDDDTTWVRIKEWLDKQRVNSVVYVSLGTEASLRREELTELALGLEKSETPFFWVLRNEPQIPDGFEERVKGRGMVHVGWVPQVKILSHESVGGFLTHCGWNSVVEGIGFGKVPIFLPVLNEQGLNTRLLQGKGLGVEVLRDERDGSFGSDSVADSVRLVMIDDAGEEIREKVKLMKGLFGNMDENIRYVDELVGFMRNDESSQLKEEEEEDDCSDDQSSEVSSETDEKELNLDLKEEKRRISVYKSLSSEFDDYVANEKMG",–,0.28,3.9,95.8,–,–,–,–,–,–,–
"S115N01 G2: UDP-glycosyltransferase, Avena strigosa, SEQ ID NO: 4 (protein, listed as Avena strigosa) MAVKDEQQSPLHILLFPFLAPGHLIPIADMAALFASRGVRCTILTTPVNAAIIRSAVDRANDAFRGSDCPAIDISVVPFPDVGLPPGVENGNALTSPADRLKFFQAVAELREPFDRFLADNHPDAVVSDSFFHWSTDAAAEHGVPRLGFLGSSMFAGSCNESTLHNNPLETAADDPDALVSLPGLPHRVELRRSQMMDPKKRPDHWALLESVNAADQKSFGEVFNSFHELEPDYVEHYQTTLGRRTWLVGPVALASKDMAGRGSTSARSPDADSCLRWLDTKQPGSVVYVSFGTLIRFSPAELHELARGLDLSGKNFVWVLGRAGPDSSEWMPQGFADLITPRGDRGFIIRGWAPQMLILNHRALGGFVTHCGWNSTLESVSAGVPMVTWPRFADQFQNEKLIVEVLKVGVSIGAKDYGSGIENHDVIRGEVIAESIGKLMGSSEESDAIQRKAKDLGAEARSAVENGGSSYNDVGRLMDELMARRSSVKVGEDIIPTNDGL",–,0.6,–,99.4,–,–,–,–,–,–,–
"S115N01 A1: UDP-glucosyltransferase Os03g0702500, Oryza sativa Japonica Group, SEQ ID NO: 3 (protein, listed as Oryza sativa) MDDAHSSQSPLHVVIFPWLAFGHLLPCLDLAERLAARGHRVSFVSTPRNLARLPPVRPELAELVDLVALPLPRVDGLPDGAEATSDVPFDKFELHRKAFDGLAAPFSAFLDTACAGGKRPDWVLADLMHHWVALASQERGVPCAMILPCSAAVVASSAPPTESSADQREAIVRSMGTAAPSFEAKRATEEFATEGASGVSIMTRYSLTLQRSKLVAMRSCPELEPGAFTILTRFYGKPVVPFGLLPPRPDGARGVSKNGKHDAIMQWLDAQPAKSVVYVALGSEAPMSADLLRELAHGLDLAGTRFLWAMRKPAGVDADSVLPAGFLGRTGERGLVTTRWAPQVSILAHAAVCAFLTHCGWGSVVEGLQFGHPLIMLPILGDQGPNARILEGRKLGVAVPRNDEDGSFDRGGVAGAVRAVVVEEEGKTFFANARKLQEIVADREREERCIDEFVQHLTSWNELKNNSDGQYP",–,2.1,–,96.7,–,–,–,–,–,–,–
"S115N06 E1: hypothetical protein OsJ_04191, Oryza sativa Japonica Group, SEQ ID NO: 6 (protein, listed as Oryza sativa) MHVVMLPWLAFGHILPFAEFAKRVARQGHRVTLFSTPRNTRRLIDVPPSLAGRIRVVDIPLPRVEHLPEHAEATIDLPSNDLRPYLRRAYDEAFSRELSRLLQETGPSRPDWVLADYAAYWAPAAASRHGVPCAFLSLFGAAALCFFGPAETLQGRGPYAKTEPAHLTAVPEYVPFPTTVAFRGNEARELFKPSLIPDESGVSESYRFSQSIEGCQLVAVRSNQEFEPEWLELLGELYQKPVIPIGMFPPPPPQDVAGHEETLRWLDRQEPNSVVYAAFGSEVKLTAEQLQRIALGLEASELPFIWAFRAPPDAGDGDGLPGGFKERVNGRGVVCRGWVPQVKFLAHASVGGFLTHAGWNSIAEGLANGVRLVLLPLMFEQGLNARQLAEKKVAVEVARDEDDGSFAANDIVDALRRVMVGEEGDEFGVKVKELAKVFGDDEVNDRYVRDFLKCLSEYKMQRQG",–,0.14,7.0,92.8,–,–,–,–,–,–,–
"UGTSL2: UGTSL2, GI_460410132, Solanum lycopersicum UDP-glucosyltransferase, SEQ ID NO: 9 (protein, listed as Solanum lycopersicum) MATNLRVLMFPWLAYGHISPFLNIAKQLADRGFLIYLCSTRINLESIIKKIPEKYADSIHLIELQLPELPELPPHYHTTNGLPPHLNPTLHKALKMSKPNFSRILQNLKPDLLIYDVLQPWAEHVANEQNIPAGKLLTSCAAVFSYFFSFRKNPGVEFPFPAIHLPEVEKVKIREILAKEPEEGGRLDEGNKQMMLMCTSRTIEAKYIDYCTELCNWKVVPVGPPFQDLITNDADNKELIDWLGTKHENSTVFVSFGSEYFLSKEDMEEVAFALELSNVNFIWVARFPKGEERNLEDALPKGFLERIGERGRVLDKFAPQPRILNHPSTGGFISHCGWNSAMESIDFGVPIIAMPIHNDQPINAKLMVELGVAVEIVRDDDGKIHRGEIAETLKSVVTGETGEILRAKVREISKNLKSIRDEEMDAVAEELIQLCRNSNKSK",–,–,–,–,6.73,52.88,3.54,2.12,1.70,42.56,20.01
"S115N05 A7: UGTSL, Solanum lycopersicum cyanidin-3-O-glucoside 2-O-glucuronosyltransferase-like, SEQ ID NO: 5 (protein, listed as Solanum lycopersicum) MSPKLHKELFFHSLYKKTRSNHTMATLKVLMFPFLAYGHISPYLNVAKKLADRGFLIYFCSTPINLKSTIEKIPEKYADSIHLIELHLPELPQLPPHYHTTNGLPPNLNQVLQKALKMSKPNFSKILQNLKPDLVIYDILQRWAKHVANEQNIPAVKLLTSGAAVFSYFFNVLKKPGVEFPFPGIYLRKIEQVRLSEMMSKSDKEKELEDDDDDDDLLVDGNMQIMLMSTSRTIEAKYIDFCTALTNWKVVPVGPPVQDLITNDVDDMELIDWLGTKDENSTVFVSFGSEYFLSKEDMEEVAFALELSNVNFIWVARFPKGEERNLEDALPKGFLERIGERGRVLDKFAPQPRILNHPSTGGFISHCGWNSAMESIDFGVPIIAMPMHLDQPMNARLIVELGVAVEIVRDDDGKIHRGEIAETLKGVITGKTGEKLRAKVRDISKNLKTIRDEEMDAAAEELIQLCRNGN",–,–,23.3,46.7,3.45,35.88,7.82,2.37,0.54,49.68,25.24
